Experiments:
[1] = tested on: HeLa Kyoto; experiment: solubility in G1/S (NP-40 vs SDS abundance) (log2 ratio); higher = more soluble; conditions: cell cycle stage: G1/S
[2] = tested on: HeLa Kyoto; experiment: melting temperature (median over replicates), in situ; higher = more thermally stable
[3] = tested on: HeLa Kyoto; experiment: solubility change mitosis vs G1/S (difference of NP-40 vs SDS log2 ratios) (log2 ratio difference); higher = more soluble in mitosis
[4] = tested on: HeLa Kyoto; experiment: thermal stability score vs G1/S (z-score of summed log2 fold changes over temperatures); higher = more thermally stable than in G1/S
[5] = cell cycle stage: early G1 (4.5 h after nocodazole release)
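Wherever melting temperature (median over replicates), in situ is given: HeLa Kyoto cells synchronized by double thymidine or nocodazole block, proteins quantified by TMT10plex mass spectrometry, three independent biological replicates.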
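Wherever solubility change mitosis vs G1/S (difference of NP-40 vs SDS log2 ratios) is given: synchronized HeLa Kyoto cells (double thymidine block for G1/S, nocodazole release for mitosis), protein amounts in NP-40 versus SDS lysates quantified by mass spectrometry, three biological replicates.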
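Wherever solubility in G1/S (NP-40 vs SDS abundance) is given: HeLa Kyoto cells arrested at G1/S by double thymidine block, proteins quantified by TMT10plex mass spectrometry in mild NP-40 versus SDS extracts, three biological replicates.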
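Wherever thermal stability score vs G1/S (z-score of summed log2 fold changes over temperatures) is given: synchronized HeLa Kyoto cells, proteins quantified by TMT10plex mass spectrometry, three biological replicates, mitosis taken 0.5 h after nocodazole release, G1/S directly after double thymidine block.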

Sequence | solubility in G1/S (log2) [1] | melting temperature ([2]; cell cycle stage: G1/S) [°C] | melting temperature ([2]; cell cycle stage: mitosis) [°C] | solubility change mitosis (log2) [3] | thermal stability score [4, 5] | thermal stability score ([4]; cell cycle stage: mitosis)
MEGAKPTLQLVYQAVQALYHDPDPSGKERASFWLGELQRSVHAWEISDQLLQIRQDVESCYFAAQTMKMKIQTSFYELPTDSHASLRDSLLTHIQNLKDLSPVIVTQLALAIADLALQMPSWKGCVQTLVEKYSNDVTSLPFLLEILTVLPEEVHSRSLRIGANRRTEIIEDLAFYSSTVVSLLMTCVEKAGTDEKMLMKVFRCLGSWFNLGVLDSNFMANNKLLALLFEVLQQDKTSSNLHEAASDCVCSALYAIENVETNLPLAMQLFQGVLTLETAYHMAVAREDLDKVLNYCRIFTELCETFLEKIVCTPGQGLGDLRTLELLLICAGHPQYEVVEISFNFWYRLGEHLYKTNDEVIHGIFKAYIQRLLHALARHCQLEPDHEGVPEETDDFGEFRMRVSDLVKDLIFLIGSMECFAQLYSTLKEGNPPWEVTEAVLFIMAAIAKSVDPENNPTLVEVLEGVVRLPETVHTAVRYTSIELVGEMSEVVDRNPQFLDPVLGYLMKGLCEKPLASAAAKAIHNICSVCRDHMAQHFNGLLEIARSLDSFLLSPEAAVGLLKGTALVLARLPLDKITECLSELCSVQVMALKKLLSQEPSNGISSDPTVFLDRLAVIFRHTNPIVENGQTHPCQKVIQEIWPVLSETLNKHRADNRIVERCCRCLRFAVRCVGKGSAALLQPLVTQMVNVYHVHQHSCFLYLGSILVDEYGMEEGCRQGLLDMLQALCIPTFQLLEQQNGLQNHPDTVDDLFRLATRFIQRSPVTLLRSQVVIPILQWAIASTTLDHRDANCSVMRFLRDLIHTGVANDHEEDFELRKELIGQVMNQLGQQLVSQLLHTCCFCLPPYTLPDVAEVLWEIMQVDRPTFCRWLENSLKGLPKETTVGAVTVTHKQLTDFHKQVTSAEECKQVCWALRDFTRLFR [TNPO3] | -0.253 | 51.6 | 51.7 | -0.0891 | 0.188 | 1.24
MEGESTSAVLSGFVLGALAFQHLNTDSDTEGFLLGEVKGEAKNSITDSQMDDVEVVYTIDIQKYIPCYQLFSFYNSSGEVNEQALKKILSNVKKNVVGWYKFRRHSDQIMTFRERLLHKNLQEHFSNQDLVFLLLTPSIITESCSTHRLEHSLYKPQKGLFHRVPLVVANLGMSEQLGYKTVSGSCMSTGFSRAVQTHSSKFFEEDGSLKEVHKINEMYASLQEELKSICKKVEDSEQAVDKLVKDVNRLKREIEKRRGAQIQAAREKNIQKDPQENIFLCQALRTFFPNSEFLHSCVMSLKNRHVSKSSCNYNHHLDVVDNLTLMVEHTDIPEASPASTPQIIKHKALDLDDRWQFKRSRLLDTQDKRSKADTGSSNQDKASKMSSPETDEEIEKMKGFGEYSRSPTF [FAM175A] | 0.0226 |  | 57.3 | -0.057 | -2.44 | -2.5
MEGKWLLCMLLVLGTAIVEAHDGHDDDVIDIEDDLDDVIEEVEDSKPDTTAPPSSPKVTYKAPVPTGEVYFADSFDRGTLSGWILSKAKKDDTDDEIAKYDGKWEVEEMKESKLPGDKGLVLMSRAKHHAISAKLNKPFLFDTKPLIVQYEVNFQNGIECGGAYVKLLSKTPELNLDQFHDKTPYTIMFGPDKCGEDYKLHFIFRHKNPKTGIYEEKHAKRPDADLKTYFTDKKTHLYTLILNPDNSFEILVDQSVVNSGNLLNDMTPPVNPSREIEDPEDRKPEDWDERPKIPDPEAVKPDDWDEDAPAKIPDEEATKPEGWLDDEPEYVPDPDAEKPEDWDEDMDGEWEAPQIANPRCESAPGCGVWQRPVIDNPNYKGKWKPPMIDNPSYQGIWKPRKIPNPDFFEDLEPFRMTPFSAIGLELWSMTSDIFFDNFIICADRRIVDDWANDGWGLKKAADGAAEPGVVGQMIEAAEERPWLWVVYILTVALPVFLVILFCCSGKKQTSGMEYKKTDAPQPDVKEEEEEKEEEKDKGDEEEEGEEKLEEKQKSDAEEDGGTVSQEEEDRKPKAEEDEILNRSPRNRKPRRE [CANX] | 0.339 | 53.7 | 53.9 | -0.0953 | 2.71 | 3.35
MEGLAGYVYKAASEGKVLTLAALLLNRSESDIRYLLGYVSQQGGQRSTPLIIAARNGHAKVVRLLLEHYRVQTQQTGTVRFDGYVIDGATALWCAAGAGHFEVVKLLVSHGANVNHTTVTNSTPLRAACFDGRLDIVKYLVENNANISIANKYDNTCLMIAAYKGHTDVVRYLLEQRADPNAKAHCGATALHFAAEAGHIDIVKELIKWRAAIVVNGHGMTPLKVAAESCKADVVELLLSHADCDRRSRIEALELLGASFANDRENYDIIKTYHYLYLAMLERFQDGDNILEKEVLPPIHAYGNRTECRNPQELESIRQDRDALHMEGLIVRERILGADNIDVSHPIIYRGAVYADNMEFEQCIKLWLHALHLRQKGNRNTHKDLLRFAQVFSQMIHLNETVKAPDIECVLRCSVLEIEQSMNRVKNISDADVHNAMDNYECNLYTFLYLVCISTKTQCSEEDQCKINKQIYNLIHLDPRTREGFTLLHLAVNSNTPVDDFHTNDVCSFPNALVTKLLLDCGAEVNAVDNEGNSALHIIVQYNRPISDFLTLHSIIISLVEAGAHTDMTNKQNKTPLDKSTTGVSEILLKTQMKMSLKCLAARAVRANDINYQDQIPRTLEEFVGFH [FEM1B] | -0.0515 | 53.5 | 52.2 | -0.0104 | 0.363 | -1.04
MEGLLHYINPAHAISLLSALNEERLKGQLCDVLLIVGDQKFRAHKNVLAASSEYFQSLFTNKENESQTVFQLDFCEPDAFDNVLNYIYSSSLFVEKSSLAAVQELGYSLGISFLTNIVSKTPQAPFPTCPNRKKVFVEDDENSSQKRSVIVCQSRNEAQGKTVSQNQPDVSHTSRPSPSIAVKANTNKPHVPKPIEPLHNLSLTEKSWPKDSSVVYAKSLEHSGSLDDPNRISLVKRNAVLPSKPLQDREAMDDKPGVSGQLPKGKALELALKRPRPPVLSVCSSSETPYLLKETNKGNGQGEDRNLLYYSKLGLVIPSSGSGSGNQSIDRSGPLVKSLLRRSLSMDSQVPVYSPSIDLKSSQGSSSVSSDAPGNVLCALSQKSSLKDCSEKTALDDRPQVLQPHRLRSFSASQSTDREGASPVTEVRIKTEPSSPLSDPSDIIRVTVGDAATTAAASSSSVTRDLSLKTEDDQKDMSRLPAKRRFQADRRLPFKKLKVNEHGSPVSEDNFEEGSSPTLLDADFPDSDLNKDEFGELEGTRPNKKFKCKHCLKIFRSTAGLHRHVNMYHNPEKPYACDICHKRFHTNFKVWTHCQTQHGIVKNPSPASSSHAVLDEKFQRKLIDIVREREIKKALIIKLRRGKPGFQGQSSSQAQQVIKRNLRSRAKGAYICTYCGKAYRFLSQFKQHIKMHPGEKPLGVNKVAKPKEHAPLASPVENKEVYQCRLCNAKLSSLLEQGSHERLCRNAAVCPYCSLRFFSPELKQEHESKCEYKKLTCLECMRTFKSSFSIWRHQVEVHNQNNMAPTENFSLPVLDHNGDVTGSSRPQSQPEPNKVNHIVTTKDDNVFSDSSEQVNFDSEDSSCLPEDLSLSKQLKIQVKEEPVEEAEEEAPEASTAPKEAGPSKEASLWPCEKCGKMFTVHKQLERHQELLCSVKPFICHVCNKAFRTNFRLWSHFQSHMSQASEESAHKESEVCPVPTNSPSPPPLPPPPPLPKIQPLEPDSPTGLSENPTPATEKLFVPQESDTLFYHAPPLSAITFKRQFMCKLCHRTFKTAFSLWSHEQTHN [ZBTB21] | -0.0999 |  | 51.7 | -0.0564 | 0.647 | 0.374
MEGSEPVAAHQGEEASCSSWGTGSTNKNLPIMSTASVEIDDALYSRQRYVLGDTAMQKMAKSHVFLSGMGGLGLEIAKNLVLAGIKAVTIHDTEKCQAWDLGTNFFLSEDDVVNKRNRAEAVLKHIAELNPYVHVTSSSVPFNETTDLSFLDKYQCVVLTEMKLPLQKKINDFCRSQCPPIKFISADVHGIWSRLFCDFGDEFEVLDTTGEEPKEIFISNITQANPGIVTCLENHPHKLETGQFLTFREINGMTGLNGSIQQITVISPFSFSIGDTTELEPYLHGGIAVQVKTPKTVFFESLERQLKHPKCLIVDFSNPEAPLEIHTAMLALDQFQEKYSRKPNVGCQQDSEELLKLATSISETLEEKPDVNADIVHWLSWTAQGFLSPLAAAVGGVASQEVLKAVTGKFSPLCQWLYLEAADIVESLGKPECEEFLPRGDRYDALRACIGDTLCQKLQNLNIFLVGCGAIGCEMLKNFALLGVGTSKEKGMITVTDPDLIEKSNLNRQFLFRPHHIQKPKSYTAADATLKINSQIKIDAHLNKVCPTTETIYNDEFYTKQDVIITALDNVEARRYVDSRCLANLRPLLDSGTMGTKGHTEVIVPHLTESYNSHRDPPEEEIPFCTLKSFPAAIEHTIQWARDKFESSFSHKPSLFNKFWQTYSSAEEVLQKIQSGHSLEGCFQVIKLLSRRPRNWSQCVELARLKFEKYFNHKALQLLHCFPLDIRLKDGSLFWQSPKRPPSPIKFDLNEPLHLSFLQNAAKLYATVYCIPFAEEDLSADALLNILSEVKIQEFKPSNKVVQTDETARKPDHVPISSEDERNAIFQLEKAILSNEATKSDLQMAVLSFEKDDDHNGHIDFITAASNLRAKMYSIEPADRFKTKRIAGKIIPAIATTTATVSGLVALEMIKVTGGYPFEAYKNCFLNLAIPIVVFTETTEVRKTKIRNGISFTIWDRWTVHGKEDFTLLDFINAVKEKYGIEPTMVVQGVKMLYVPVMPGHAKRLKLTMHKLVKPTTEKKYVDLTVSFAPDIDGDEDLPGPPVRYYFSHDTD [UBA6] | 0.00865 | 50.7 | 49.8 | -0.192 | -0.786 | -0.409
MEHIRTTKVEQVKLLDRFSTSNKSLTGTLYLTATHLLFIDSHQKETWILHHHIASVEKLALTTSGCPLVIQCKNFRTVHFIVPRERDCHDIYNSLLQLSKQAKYEDLYAFSYNPKQNDSERLQGWQLIDLAEEYKRMGVPNSHWQLSDANRDYKICETYPRELYVPRIASKPIIVGSSKFRSKGRFPVLSYYHQDKEAAICRCSQPLSGFSARCLEDEHLLQAISKANPVNRYMYVMDTRPKLNAMANRAAGKGYENEDNYSNIRFQFVGIENIHVMRSSLQKLLEVNGTKGLSVNDFYSGLESSGWLRHIKAVMDAAIFLAKAITVENASVLVHCSDGWDRTSQVCSLGSLLLDSYYRTIKGFMVLIEKDWISFGHKFSERCGQLDGDPKEVSPVFTQFLECVWHLTEQFPQAFEFSEAFLLQIHEHIHSCQFGNFLGNCQKEREELKLKEKTYSLWPFLLEDQKKYLNPLYSSESHRFTVLEPNTVSFNFKFWRNMYHQFDRTLHPRQSVFNIIMNMNEQNKQLEKDIKDLESKIKQRKNKQTDGILTKELLHSVHPESPNLKTSLCFKEQTLLPVNDALRTIEGSSPADNRYSEYAEEFSKSEPAVVSLEYGVARMTC [MTMR6] | -0.264 | 51 | 50.5 | 0.0297 | -0.167 | 0.0404
MEKNGNNRKLRVCVATCNRADYSKLAPIMFGIKTEPEFFELDVVVLGSHLIDDYGNTYRMIEQDDFDINTRLHTIVRGEDEAAMVESVGLALVKLPDVLNRLKPDIMIVHGDRFDALALATSAALMNIRILHIEGGEVSGTIDDSIRHAITKLAHYHVCCTRSAEQHLISMCEDHDRILLAGCPSYDKLLSAKNKDYMSIIRMWLGDDVKSKDYIVALQHPVTTDIKHSIKMFELTLDALISFNKRTLVLFPNIDAGSKEMVRVMRKKGIEHHPNFRAVKHVPFDQFIQLVAHAGCMIGNSSCGVREVGAFGTPVINLGTRQIGRETGENVLHVRDADTQDKILQALHLQFGKQYPCSKIYGDGNAVPRILKFLKSIDLQEPLQKKFCFPPVKENISQDIDHILETLSALAVDLGGTNLRVAIVSMKGEIVKKYTQFNPKTYEERINLILQMCVEAAAEAVKLNCRILGVGISTGGRVNPREGIVLHSTKLIQEWNSVDLRTPLSDTLHLPVWVDNDGNCAALAERKFGQGKGLENFVTLITGTGIGGGIIHQHELIHGSSFCAAELGHLVVSLDGPDCSCGSHGCIEAYASGMALQREAKKLHDEDLLLVEGMSVPKDEAVGALHLIQAAKLGNAKAQSILRTAGTALGLGVVNILHTMNPSLVILSGVLASHYIHIVKDVIRQQALSSVQDVDVVVSDLVDPALLGAASMVLDYTTRRIY [GNE] | -0.138 | 55.2 | 55.8 | -0.159 | 3.4 | 4.39

— the supplement of paper PMC5998384
